Legend:
[1] = molecular target: HK68 H3mini2a-linker+cl9_+10+12+16+CG7-GCN4T (influenza A virus H3N2, UniProt Q91MA7 17-566); assay: FACS on HEK293F
[2] = molecular target: HK68 H3mini2a-linker+cl9_+10+12+19+GCN4T (influenza A virus H3N2, UniProt P12584 1-550); assay: FACS on HEK293F
[3] = molecular target: H3 HK68 mini2a-linker2+cl9_+10+12+GCN4T (influenza A virus H3N2, UniProt Q91MA7 17-566); assay: FACS on HEK293F
[4] = molecular target: HK68 H3mini2a-linker+cl9_+10+12+17+CG7-GCN4T (influenza A virus H3N2, UniProt Q91MA7 17-566); assay: FACS on HEK293F
[5] = molecular target: HK68 H3m2-cl9+10+12 (influenza A virus H3N2, UniProt Q91MA7 17-566); assay: FACS on HEK293F [D00014 FIG. 10B]
[6] = molecular target: HK68 H3m2-cl9+10+11+13-tri (influenza A virus H3N2, UniProt Q91MA7 17-566); assay: FACS on HEK293F [D00014 FIG. 10B]

Measured: binding result

B1: CR8057 (antibody, V domains shown)
VH: EVQLVESGGGLVQPGGSLRLSCAASGFTDSVIFMSWVRQAPGKGLECVSIIYIDDSTYYADSVKGRFTISRHNSMGTVFLEMNSLRPDDTAVYYCATESGDFGDQTGPYHYYAMDV
VL: QSALTQPASVSGSPGQSITISCTGSSGDIGGYNAVSWYQHHPGKAPKLMIYEVTSRPSGVSDRFSASRSGDTASLTVSGLQAEDEAHYYCCSFADSNILI
no binding (tested: 5 ug/ml): all assays above

Reference: patent publication US20160355553A1 (Janssen / Centocor, published 2016)
